Columns and labels:
neurons = test: Current clamp / dynamic clamp electrical properties of neurons; format: cell-based
Experimental: (§1) For electrophysiological experiments, mixed cortical neuronal/glial cultures were prepared from embryonic day 16 (E16) Sprague-Dawley rats (Charles River Laboratories, Wilmington, Mass., USA). Donor rats were euthanized by gradual CO2 exposure. Cortices were dissociated with trypsin, and the resultant cell suspension, adjusted to 670,000 cells per well, was plated on glass coverslips in 6-well plates as described previously (Hartnett et al., J Neurochem 68, 1836-1845, 1997). Non-neuronal cell proliferation was inhibited after two weeks in culture with 1-2 μM cytosine arabinoside, and cultures utilized at three to four weeks in vitro. For neuronal transfection, cells were treated for five hours in serum-free medium with 2 μL LIPOFECTAMINE™ 2000 (Invitrogen, Carlsbad, Calif.), 50 μL Optimem (GIBCO, Grand Island, N.Y.), and 1.5 μg DNA per well. For CHO cell transfections, cells were plated on coverslips in 24-well plates at a density of 5.6×10^4 cells per well for electrophysiological measurements or in 100 mm dishes at a density of 1.7×10^6 cells per dish for biochemical studies. Cells were treated for 3-4 hours in serum-free medium with a total of 1.2 μL LIPOFECTAMINE™ and 0.28 μg DNA per well for electrophysiology, or 55.1 μL LIPOFECTAMINE™ and 7.33 μg DNA per dish for biochemistry. Following transfection, cells were maintained in F12 medium containing fetal bovine serum at 37° C., 5% CO2 for 24 hours prior to experimentation.
Current recordings were performed on eGFP-positive co-transfected neurons or CHO cells using the whole-cell patch clamp configuration technique as described previously (McLaughlin et al., J Neurosci 21, 3303-3311, 2001). The intracellular (electrode) solution contained (in mM): 100 K-gluconate, 11 EGTA, 10 KCl, 1 MgCl2, 1 CaCl2×2H2O, 10 HEPES; pH adjusted to 7.2 with concentrated KOH; 2.2 ATP and 0.33 GTP were added and the osmolarity was adjusted to 280 mOsm with sucrose. The extracellular solution contained (in mM): 115 NaCl, 2.5 KCl, 2.0 MgCl2, 10 HEPES, 10 D-glucose; 0.25 μM tetrodotoxin; pH adjusted to 7.2. Measurements were obtained under whole-cell voltage clamp with an Axopatch-1D amplifier and pClamp software (Molecular Devices, Sunnyvale, Calif.), using 2-3 MΩ recording electrodes. Electrodes were pulled from 1.5 mm borosilicate glass (Warner Instruments, Hamden, Conn.) with a model P-97 mechanical pipette puller (Sutter Instruments, Novato, Calif.). Series resistance was partially compensated (80%) in all cases. Currents were filtered at 2 kHz and digitized at 10 kHz with a Digidata 1440A Digitizer (Molecular Devices). K^+ currents were evoked with incremental 10 mV voltage steps to +80 mV from a holding potential of −80 mV. To determine current density values, steady-state current amplitudes were measured 180 msec after the initiation of the +10 mV step and normalized to cell capacitance. For current clamp experiments, the intracellular (electrode) solution contained (in mM): 94 K-gluconate, 30 KCl, 10 phosphocreatine di-tris salt, 10 HEPES, 0.2 EGTA, 4 ATP, 0.3 GTP; pH adjusted to 7.3 with concentrated KOH. […] By repeatedly adjusting the scaling factor k, an automated binary search algorithm determined threshold synaptic conductance (thresh-gsyn), the conductance required to reach firing threshold (Kullmann et al., J Neurophysiol 91, 542-54, 2004).
(§2) It was next evaluated whether C1a441-522 was sufficient to protect neurons against oxidative injury. […]

cortical neurons = test: Viability of transfected neurons exposed to activated microglia (GFP+ cell counts); format: cell-based, rat; details: overnight exposure to activated microglia; vector-expressing cells reduced by nearly 40%
Experimental: as §1, with “Cells were treated for 3-4 hours in serum-free medium with a total of 1.2 μL LIPOFECTAMINE™ and 0.28 μg DNA per well for electrophysiology, or 55.1 μL LIPOFECTAMINE™ and 7.33 μg DNA per dish for biochemistry. Following transfection, cells were maintained in F12 medium containing fetal bovine serum at 37° C., 5% CO2 for 24 hours prior to experimentation.” left out
Viability of transfected neurons was assessed by cell counts of GFP+ cells. […] GFP+ cells were counted in 20 random areas per coverslip using a 20× objective. […]
as §2

B1: C1a441-522: distal segment of C1a, residues 441-522 of rat Kv2.1 (protein, UniProt P15387 441-522, looked up, fragment)
chain: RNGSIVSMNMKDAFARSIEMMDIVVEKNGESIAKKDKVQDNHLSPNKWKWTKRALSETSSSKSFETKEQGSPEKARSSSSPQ
In the case of B1, the “overall effect of expression on neurons” value (neurons) is reported as “relatively innocuous to neurons”, the “firing frequency as a function of depolarizing current versus vector-expressing neurons” value (neurons; 1 sec depolarizing current steps, 15-120 pA) is reported as “small but significant increase” and the “input resistance versus vector-expressing neurons” value (neurons; current clamp) is reported as “no differences”. For the same molecule, the “resting membrane potential versus vector-expressing neurons” value (neurons; current clamp) was “no differences”, the “threshold synaptic conductance versus vector-expressing neurons” value (neurons; dynamic clamp) was “no differences” and the “effect of activated microglia on viability of peptide-expressing neurons” value (cortical neurons) was “no detrimental effect”.

Reference: patent publication US9932382B2, “Kv2.1 channel-derived peptides and methods of use” (University of Pittsburgh—Of the Commonwealth System of …, priority 2014, dated 2018)
